These results are taken from patent US6033882A, “Chiral synthesis of 2-hydroxy carboxylic acids with a dehydrogenase” (Genzyme Corporation, priority 1994, dated 2000).

Substitutions are numbered along the chain they refer to. Where two headings read alike, the source gives them in different places.

The target of series [1] is T1, Lactobacillus delbrueckii ssp. Bulgaricus R-2-hydroxy acid dehydrogenase (LB2HADH), wild type (H206), SEQ ID NO:1 (Lactobacillus delbrueckii, UniProt Q48534).
T1 construct: no tag mentioned
T1 sequence (Q48534 1-333): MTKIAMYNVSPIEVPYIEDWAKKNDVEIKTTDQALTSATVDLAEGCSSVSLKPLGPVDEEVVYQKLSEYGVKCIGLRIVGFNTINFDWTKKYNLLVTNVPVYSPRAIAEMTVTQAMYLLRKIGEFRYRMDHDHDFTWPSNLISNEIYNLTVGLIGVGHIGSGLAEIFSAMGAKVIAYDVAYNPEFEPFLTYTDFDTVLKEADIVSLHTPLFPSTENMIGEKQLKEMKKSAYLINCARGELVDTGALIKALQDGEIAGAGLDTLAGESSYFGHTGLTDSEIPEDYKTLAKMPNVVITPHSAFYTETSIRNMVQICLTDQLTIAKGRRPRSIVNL
In words: Steady-state kinetics of 2-keto acid reduction, followed by NADH oxidation. The series is classed as biochemical. The source says:
Since 1950, a number of workers have investigated the reduction of 2-oxo carboxylic acids catalysed by R-hydroxy acid dehydrogenases. For these studies, enzymes isolated from a variety of bacte rial sources have bee n employed. For a given 2-oxo acid, a given enzyme activity may be examined by UV spectroscopy and quantified with the Michaelis constant, Km, and the catalytic turnover, kcat.
The two compartment model for the binding pocket of the enzyme is illustrated in accompanying FIG. 1.
The substrate specificity of the purified enzyme was established by following the kinetics of reduction of a variety of 2-ketoacids (see Table 2 above).
(The steady-state kinetic constants of LB2HADH and H206Q in Table 6 below were obtained using standard stopped flow measurements.)

The target of series [2] is T2, Lactobacillus delbrueckii ssp. Bulgaricus R-2-hydroxy acid dehydrogenase (LB2HADH) variant H206Q (Q206 mutant, Histidine 206 replaced by glutamine) (Lactobacillus delbrueckii, UniProt Q48534, H207Q).
T2 construct: no tag mentioned
T2 sequence (Q48534 1-333 H207Q): T1 sequence (Q48534 1-333) with H207Q
The series is described as above. The series is classed as biochemical. The procedure: Glutamine 206 variant of LB2HADH:
A site-directed mutant was prepared from pGIN113 (Bernard, N., et al, Eur. J. Biochem., (1994), 224, 439-446) using a mutagenic oligonucleotide:
and the Promega "altered sites mutagenesis" kit. The enzyme was purified as for the wild type.
The vQ206 /vwt was 45 at 70 mM substrate.
The results are illustrated in accompanying FIG. 2, the Vmax values for H206Q being divided by 10 to obtain a clearer representation of comparative performance. […] (The steady-state kinetic constants of LB2HADH and H206Q in Table 6 below were obtained using standard stopped flow measurements.)

Substrate in series [3]: NC(=O)C1=CN([C@@H]2O[C@H](COP(=O)(O)OP(=O)(O)OC[C@H]3O[C@@H](n4cnc5c(N)ncnc54)[C@H](O)[C@@H]3O)[C@@H](O)[C@H]2O)C=CC1
Description: purified protein, by the assay type. To be noted: other: pH 5.5, stopped flow.

Substrate in series [4]: CCCCC(=O)C(=O)O
Description: purified protein, by the assay type. Type of series: biochemical, Lactobacillus delbrueckii ssp. Bulgaricus. To be noted: other: pH 7.5; [NADH] = 0.2 mM; pH 7.5.

Substrate in series [5]: CCCC(=O)C(=O)O
In words: purified protein, by the assay type. Type of series: biochemical, Lactobacillus delbrueckii ssp. Bulgaricus. Conditions: other: pH 7.5; [NADH] = 0.2 mM; pH 7.5.

Substrate in series [6]: O=C(O)C(=O)CCc1ccccc1
In words: purified protein, by the assay type. Type of series: biochemical, Lactobacillus delbrueckii ssp. Bulgaricus. To be noted: other: pH 7.5; [NADH] = 0.2 mM; pH 7.5.

Substrate in series [7]: O=C(O)C(=O)CCC1CCCC1
Description: purified protein, by the assay type. The series is classed as biochemical, Lactobacillus delbrueckii ssp. Bulgaricus.

Substrate in series [8]: CC(=O)C(=O)O
In words: purified protein, by the assay type. Type of series: biochemical, Lactobacillus delbrueckii ssp. Bulgaricus. To be noted: other: pH 7.5; [NADH] = 0.2 mM; pH 7.5.

Substrate in series [9]: CC(C)C(=O)C(=O)O
Description: purified protein, by the assay type. Type of series: biochemical, Lactobacillus delbrueckii ssp. Bulgaricus. Conditions: other: pH 7.5; [NADH] = 0.2 mM; pH 7.5.

Substrate in series [10]: CCC(=O)C(=O)O
In words: purified protein, by the assay type. The series is classed as biochemical, Lactobacillus delbrueckii ssp. Bulgaricus. To be noted: other: pH 7.5; [NADH] = 0.2 mM; pH 7.5.

Substrate in series [11]: CC(C)CC(=O)C(=O)O
In words: purified protein, by the assay type. Type of series: biochemical, Lactobacillus delbrueckii ssp. Bulgaricus.

[12] abbreviates: other: pH 7.5, [NADH] = 0.2 mM, pH 7.5.
Setting [13] is: other: pH 5.0, stopped flow, pH 5.0.
Where [14] appears, read: other: pH 5.5, stopped flow, pH 5.5.
Where [15] appears, read: other: pH 6.0, stopped flow, pH 6.0.
[16] abbreviates: other: pH 6.5, stopped flow, pH 6.5.

In general, kcat/Km refers to the second-order rate constant that governs catalysis at low substrate concentration. Broadly, the kcat is the maximal rate divided by the concentration of active sites.

Take `O=C(O)C(=O)CCc1ccccc1` [benzylpyruvate, 2-oxo-4-phenyl butanoate]: in series [1] (pH 7.5, [NADH] = 0.2 mM), the “Vm (VM (app): turnover at optimal substrate concentration)” value turned out to be 51 s⁻¹.

As to `O=C(O)C(=O)Cc1ccccc1` [phenylpyruvate], the Km in [1] (pH 7.5, [NADH] = 0.2 mM, read-out: Km (KM (app): substrate concentration for 0.5 Vmax)) was 31 µM.

As to `O=C(O)C(=O)CCC1CCCC1` [cyclopentylmethyl, 4-cyclopentyl-2-keto-butanoate], the Ki was greater than 100 mM in series [2] (read-out: Ki (substrate), substrate inhibition, Q206 mutant) and 2 mM in series [1] (substrate inhibition, wild type, read-out: Ki (substrate)).

As to `CC(=O)C(=O)O` [pyruvate], the “Vm (VM (app): turnover at optimal substrate concentration)” value in series [1] (pH 7.5, [NADH] = 0.2 mM) was 48 s⁻¹.

As to `CC(C)CC(=O)C(=O)O` [ketoisocaproate, 4-methyl-2-oxo-pentanoic acid], the Ki was 3.5 mM in series [2] (read-out: Ki KIC, pH 5.0, stopped flow); 8.1 mM in [2] (read-out: Ki KIC, pH 5.5, stopped flow); 5.8 mM in [2] (read-out: Ki KIC, pH 6.0, stopped flow); 7.6 mM in series [2] (read-out: Ki KIC, pH 6.5, stopped flow); 0.24 mM in [1] (pH 5.5, stopped flow, read-out: Ki KIC); 0.31 mM in series [1] (pH 6.0, stopped flow, read-out: Ki KIC). This molecule had a Vm/KM in [1] (pH 6) of 5e+06 M⁻¹ s⁻¹. Moreover, the “Vm (VM (app): turnover at optimal substrate concentration)” value in series [1] (pH 7.5, [NADH] = 0.2 mM) stood at 20 s⁻¹.

B1: Lactobacillus delbrueckii ssp. Bulgaricus R-2-hydroxy acid dehydrogenase (LB2HADH), wild type (H206), SEQ ID NO:1 (Lactobacillus delbrueckii) (protein)
chain: T1 sequence (Q48534 1-333)
notes: no tag mentioned
Consider B1, for which the Km in [3] was determined as 15 µM; in [4], 20 µM; in series [5], 57 µM; in series [6] it was 36 µM; in series [7] (other: 0.2 mM NADH, wild type), 8 µM; in series [7] (setting [12]), 10 µM. The Km came to 20000 µM in [8]; 20000 µM in [9]; 1700 µM in series [10]; 25 µM in [11] (setting [13]); 30 µM in [11] (setting [14]); 50 µM in series [11] (setting [15]). Also, the Km in series [11] (setting [16]) amounted to 15 µM; in series [11] (setting [12]) it was 22 µM. For the same molecule, the kcat/Km in series [4] is 650000 M⁻¹ s⁻¹; in [5] it was 330000 M⁻¹ s⁻¹; in series [6] it was 1.4e+06 M⁻¹ s⁻¹; in series [7] (setting [12]), 2.8e+06 M⁻¹ s⁻¹; in series [10] it was 28000 M⁻¹ s⁻¹; in [11] (setting [13]), 7e+06 M⁻¹ s⁻¹. Moreover, the kcat/Km stood at 8e+06 M⁻¹ s⁻¹ in series [11] (setting [14]), 5e+06 M⁻¹ s⁻¹ in [11] (setting [15]), 5e+06 M⁻¹ s⁻¹ in series [11] (setting [16]) and 910000 M⁻¹ s⁻¹ in [11] (setting [12]). For the same molecule, the kcat in series [7] (other: 0.2 mM NADH, wild type) was 25 s⁻¹; in series [11] (setting [13]) it was 170 s⁻¹; in series [11] (setting [14]), 240 s⁻¹; in series [11] (setting [15]), 245 s⁻¹; in [11] (setting [16]), 75 s⁻¹.
